Laboratory results as given in patent publication US20120288536, “Stabilized Stat3 Decoy Oligonucleotides And Uses Therefor” (Carnegie Melton, published 2012).

Assays:
[1] = biological target: T1, pSTAT3 (tyrosine-phosphorylated STAT3) (UniProt P40763 P40763:1-770); experiment: SPR; Langmuir 1:1, 4 C, 20 mM HEPES pH 7.0, 200 mM NaCl, 10 mM MgCl2; details: tags: recombinant, immobilized on CM5 chip for SPR, chain copies: 2 inferred, hairpin, GAAA loop linking the strands
Protocol: (§1) To more quantitatively assess the affinity of the decoy for pSTAT3 protein, the binding affinity by surface plasmon resonance (SPR) was determined. Solutions of STAT3 decoy were prepared at multiple concentrations and passed over recombinant tyrosine phosphorylated STAT3 immobilized in a sensor chip.
(§2) The amount of parent STAT3 decoy and modified STAT3 decoys bound to recombinant pSTAT3 increased directly with increasing concentrations of STAT3 decoy in test solutions. Data analysis by fitting the sensorgrams to a Langmuir 1:1 model of binding yielded kinetic and affinity values (Table 4).
(§3) To determine the specific binding affinities of the parent and the modified decoys (DN4 and DS18) to the pSTAT3 protein, surface plasmon resonance (SPR) analyses were performed using a BIAcore 3000 instrument (GE Healthcare, Piscataway, N.J.). All buffer and sample solutions were filtered and degassed prior to each run, with more optimal pH and instrument parameters determined empirically. The pSTAT3 protein at 10 μg/ml in 10 mM sodium acetate buffer (pH 4.0), was immobilized on freshly activated chip surface. […] Binding of STAT3 decoy, DN4 and DS18 to pSTAT3 protein were determined at several concentrations such as […] 0.625 μM, 1.25 μM, 2.5 μM 5.0 μM and 10.0 μM of analyte solutions, at a flow rate of 30 μL/min in a running buffer (20 mM HEPES, pH 7.0, 200 mM NaCl, 10 mM MgCl₂). […]

[2] = biological target: T2, STAT3 (UniProt P40763 P40763:1-770); experiment: EMSA; details: chain copies: 2 inferred
T2 sequence (P40763 whole entry, one chain of several): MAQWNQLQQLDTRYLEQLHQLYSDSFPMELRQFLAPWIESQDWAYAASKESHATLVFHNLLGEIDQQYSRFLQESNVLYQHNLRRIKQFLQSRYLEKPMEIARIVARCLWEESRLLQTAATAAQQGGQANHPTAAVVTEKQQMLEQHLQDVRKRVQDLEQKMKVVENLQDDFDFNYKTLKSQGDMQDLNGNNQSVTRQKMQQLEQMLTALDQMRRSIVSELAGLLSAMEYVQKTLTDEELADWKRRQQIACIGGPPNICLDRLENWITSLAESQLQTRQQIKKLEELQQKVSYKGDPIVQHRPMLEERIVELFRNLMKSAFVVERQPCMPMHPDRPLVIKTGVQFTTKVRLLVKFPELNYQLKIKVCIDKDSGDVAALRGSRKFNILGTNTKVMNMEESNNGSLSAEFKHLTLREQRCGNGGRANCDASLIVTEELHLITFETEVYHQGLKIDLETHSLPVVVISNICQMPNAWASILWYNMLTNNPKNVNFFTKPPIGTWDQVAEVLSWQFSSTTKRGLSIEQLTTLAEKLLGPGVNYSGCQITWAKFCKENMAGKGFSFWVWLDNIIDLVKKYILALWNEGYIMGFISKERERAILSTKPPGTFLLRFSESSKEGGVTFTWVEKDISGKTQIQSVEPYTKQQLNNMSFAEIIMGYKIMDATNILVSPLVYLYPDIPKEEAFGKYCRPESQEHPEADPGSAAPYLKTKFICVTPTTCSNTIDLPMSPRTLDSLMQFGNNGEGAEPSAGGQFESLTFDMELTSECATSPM

[3] = biological target: T1, pSTAT3 (tyrosine-phosphorylated STAT3); experiment: SPR; Langmuir 1:1, 4 C, 20 mM HEPES pH 7.0, 200 mM NaCl, 10 mM MgCl2; replicate 1.15E-7 (Table 5A), 3.20E-7 (Table 5B); Table 3 1.29E-7 to 9.91E-7; details: tags: recombinant, immobilized on CM5 chip for SPR, chain copies: 2 inferred
Protocol: as §1, §2, §3

[4] = biological target: T2, STAT3; experiment: EMSA; longer sequence effective in blocking STAT3 activation; details: chain copies: 2 inferred

T1 sequence (P40763 whole entry, one chain of several): as above

B1: DN4 (structured_DNA)
DNA: CATTTCCCGTAAATCGAAAGATTTACGGGAAATG
modifications: PS x3 at 5' end of one strand and 3' end of the other (Table 2: 5' and 3' ends of both strands)
Kd [1]: 182 nM

B2: STAT3 decoy (hSIE) (dsDNA)
DNA 1: CATTTCCCGTAAATC
DNA 2: GATTTACGGGAAATG
binding result [2]: binds

B3: parent STAT3 decoy (PTO) (dsDNA)
DNA 1: CATTTCCCGTAAATC
DNA 2: GATTTACGGGAAATG
modifications: PS first three and last three bases of both strands
Kd [3]: 122 nM

B4: Mutant 3 (mutant control decoy) (dsDNA)
DNA 1: CATTTCCCTTAAATC
DNA 2: GATTTAAGGGAAATG
binding result [2]: no binding

B5: longer 31-mer hSIE duplex (dsDNA)
DNA 1: AGCTTGTCGACATTTCCCGTAAATCGTCGAG
DNA 2: CTCGACGATTTACGGGAAATGTCGACAAGCT
binding result [4]: binds
